From patent publication US20220251222A1, “IL-6Ralpha/IL-8R BISPECIFIC BINDING AGENTS FOR INHIBITING CANCER CELL MIGRATION” (The Johns Hopkins University, priority 2019, published 2022)

Target: human IL-6 (residues 3-185) displayed on the surface of yeast (human) (UniProt P05231)
Test: flow cytometry titration of IL-6Rα ECD on IL-6-displaying yeast

- Kd: 88 nM
Substance: human IL-6Rα extracellular domain (ECD), residues 89-303 of the mature protein, with C-terminal biotin acceptor peptide and hexahistidine, biotinylated (from UniProt P08887 108-322) (receptor)
